The target in the assay is T1, RNASEH2BC heterodimer, purified (human, UniProt Q5TBB1 1-312; Q8TDP1 1-164).
T1 sequence (looked up) 1: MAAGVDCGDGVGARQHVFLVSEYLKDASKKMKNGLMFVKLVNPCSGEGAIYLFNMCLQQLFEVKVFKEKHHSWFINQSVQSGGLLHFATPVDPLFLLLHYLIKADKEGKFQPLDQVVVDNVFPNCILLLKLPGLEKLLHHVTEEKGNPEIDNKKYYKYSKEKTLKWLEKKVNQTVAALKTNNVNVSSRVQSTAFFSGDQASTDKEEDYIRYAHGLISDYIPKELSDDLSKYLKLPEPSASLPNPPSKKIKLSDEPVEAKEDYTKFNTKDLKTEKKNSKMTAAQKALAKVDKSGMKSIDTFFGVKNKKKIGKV
T1 sequence (looked up) 2: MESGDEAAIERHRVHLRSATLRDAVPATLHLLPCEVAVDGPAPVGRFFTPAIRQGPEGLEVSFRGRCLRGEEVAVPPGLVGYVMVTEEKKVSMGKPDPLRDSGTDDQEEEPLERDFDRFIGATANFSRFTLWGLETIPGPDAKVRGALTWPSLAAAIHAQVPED
Put plainly: fluorescence polarisation. For orientation: Polarisation of emitted light reports the rotation of a fluorescent probe.

Ends that are not written are not given here.

Usually Kd stands for a measure of binding affinity in units of concentration. Read a high Kd as a looser complex. Molecule fluorescein-GSSHRYFLERGLESATSL [fluorescein-labeled peptide RNASEH2A:283–299] displayed a Kd of 123 ± 10 nM.

These data come from publication PMC3060506 (The Journal of Biological Chemistry, 2010).
